T1: Human VSIG4-L-CHO (human VSIG4 long isoform on CHO-K1 cells) (human, UniProt Q9Y279 20-399)
T1 construct: also called hVSIG4-L (flow cytometry)
T1 sequence: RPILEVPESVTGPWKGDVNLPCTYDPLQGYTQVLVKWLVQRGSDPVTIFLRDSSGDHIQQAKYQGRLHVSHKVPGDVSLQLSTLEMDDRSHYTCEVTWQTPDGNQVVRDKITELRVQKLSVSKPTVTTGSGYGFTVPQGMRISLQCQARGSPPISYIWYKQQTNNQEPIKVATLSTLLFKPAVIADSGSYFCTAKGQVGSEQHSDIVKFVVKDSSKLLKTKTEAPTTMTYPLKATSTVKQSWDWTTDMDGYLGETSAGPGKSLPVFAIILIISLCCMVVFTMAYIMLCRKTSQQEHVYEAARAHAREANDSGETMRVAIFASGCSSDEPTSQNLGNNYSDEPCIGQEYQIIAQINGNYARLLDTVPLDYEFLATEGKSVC

T2: Cynomolgus Monkey VSIG4-L-His (cynomolgus monkey)
T2 construct: ECD with His tag; also called cyVSIG4-L; cyno VSIG4-L-His
T2 chain: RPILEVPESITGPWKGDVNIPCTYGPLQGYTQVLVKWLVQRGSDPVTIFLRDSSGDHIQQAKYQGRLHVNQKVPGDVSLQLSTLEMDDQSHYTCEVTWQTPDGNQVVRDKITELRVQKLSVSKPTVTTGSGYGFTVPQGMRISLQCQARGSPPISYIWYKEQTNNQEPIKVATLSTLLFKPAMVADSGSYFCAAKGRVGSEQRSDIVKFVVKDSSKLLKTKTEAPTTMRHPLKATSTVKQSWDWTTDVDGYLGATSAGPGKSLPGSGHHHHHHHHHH

T3: Human VSIG4-L-His (human, UniProt Q9Y279 20-283)
T3 construct: long isoform ECD with His tag; also called hVSIG4-L
T3 sequence: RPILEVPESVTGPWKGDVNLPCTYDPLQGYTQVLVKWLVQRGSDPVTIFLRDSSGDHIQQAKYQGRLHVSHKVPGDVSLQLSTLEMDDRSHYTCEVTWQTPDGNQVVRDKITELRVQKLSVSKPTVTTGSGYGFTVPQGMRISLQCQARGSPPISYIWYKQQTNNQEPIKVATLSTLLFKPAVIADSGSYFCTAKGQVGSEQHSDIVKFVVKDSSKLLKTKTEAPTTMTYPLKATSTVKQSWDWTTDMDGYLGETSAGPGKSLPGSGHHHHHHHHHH

T4: Human VSIG4-S-His (human, UniProt Q9Y279 20-283)
T4 construct: short isoform ECD with His tag; also called hVSIG4-S; VISG4-S-His
T4 sequence: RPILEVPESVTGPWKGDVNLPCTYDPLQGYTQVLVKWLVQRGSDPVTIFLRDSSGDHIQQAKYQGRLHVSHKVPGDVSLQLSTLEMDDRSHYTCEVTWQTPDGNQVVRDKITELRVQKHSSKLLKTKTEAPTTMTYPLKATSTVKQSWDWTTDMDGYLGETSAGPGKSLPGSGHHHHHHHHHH

T5: Mouse VSIG4-His (mouse)
T5 construct: ECD with His tag; also called mVSIG4
T5 chain: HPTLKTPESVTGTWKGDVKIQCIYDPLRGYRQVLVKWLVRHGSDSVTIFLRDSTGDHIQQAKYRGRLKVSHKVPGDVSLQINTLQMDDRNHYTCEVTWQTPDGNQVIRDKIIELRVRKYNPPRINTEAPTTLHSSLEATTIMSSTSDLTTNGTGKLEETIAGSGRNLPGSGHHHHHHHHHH


How the values were obtained:
Human VSIG4-L-Fc [1] = target: T6, Human VSIG4-L-Fc (human); assay: BLI binning on hVSIG4-L-Fc, competitor 12A08 first;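 note: normalized to binding of second antibody without first competitor antibody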
T6 construct: also called hVSIG4-L-Fc; hVSIG4-L
Target sequence in this assay (chain, as listed by the source limits assumed): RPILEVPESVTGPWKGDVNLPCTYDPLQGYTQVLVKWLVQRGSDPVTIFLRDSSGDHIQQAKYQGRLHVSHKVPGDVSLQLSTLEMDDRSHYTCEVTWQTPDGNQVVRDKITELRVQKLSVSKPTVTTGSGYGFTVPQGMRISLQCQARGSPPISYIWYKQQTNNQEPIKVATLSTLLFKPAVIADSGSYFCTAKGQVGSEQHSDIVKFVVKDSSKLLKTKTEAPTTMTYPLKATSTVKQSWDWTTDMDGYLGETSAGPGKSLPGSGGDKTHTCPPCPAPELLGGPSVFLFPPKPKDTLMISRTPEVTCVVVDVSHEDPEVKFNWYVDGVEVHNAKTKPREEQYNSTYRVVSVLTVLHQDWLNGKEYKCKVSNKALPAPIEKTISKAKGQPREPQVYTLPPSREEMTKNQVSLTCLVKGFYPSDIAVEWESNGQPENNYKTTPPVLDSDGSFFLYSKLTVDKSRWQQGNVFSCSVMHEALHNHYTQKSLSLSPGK

Human VSIG4-L-Fc [2] = target: T6, Human VSIG4-L-Fc; assay: BLI binning on hVSIG4-L-Fc, competitor 16E03 first;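 note: normalized to binding of second antibody without first competitor antibody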
Method: (§1) Epitopic diversity of functional antibodies was further assessed by antibody cross-blocking experiments, performed on a ForteBio Octet® Red384 system. […] All assay steps occurred at 30° C. with an acquisition rate of 5.0 Hz.
(§2) Binning results were calculated using ForteBio Data Analysis HT software. Antibody “a” and antibody “b” steps were defined, and the maximum binding calculation was averaged at the last 10% of the step duration. Once the matrix was generated, the antibody “b” binding signal in the absence of any antibody “a” was used to normalize the maximum binding of the competitor antibodies. Hierarchical clustering was set with a similarity metric of Pearson and Lingang Criteria by Mean, and the normalized maximum binding nm shift is reported in Table 9 below.

Human VSIG4-L-Fc [3] = target: T6, Human VSIG4-L-Fc; assay: BLI binning on hVSIG4-L-Fc, competitor 16E10 first;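 note: normalized to binding of second antibody without first competitor antibody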
Human VSIG4-L-Fc [4] = target: T6, Human VSIG4-L-Fc; assay: ligand competition ELISA (FJB), blocked ligand C3b
Human VSIG4-L-Fc [5] = target: T6, Human VSIG4-L-Fc; assay: BLI binning on hVSIG4-L-Fc, competitor 15C04 first;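 note: normalized to binding of second antibody without first competitor antibody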
Human VSIG4-L-Fc [6] = target: T6, Human VSIG4-L-Fc; assay: BLI binning on hVSIG4-L-Fc, competitor 15C03 first;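 note: normalized to binding of second antibody without first competitor antibody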
Method: as §1, §2

[7] = target: T1, Human VSIG4-L-CHO (human VSIG4 long …); assay: flow cytometry (FJB), 200 nM mAb, huVSIG4-L CHO-K1 over parental CHO-K1
Human VSIG4-L-Fc [8] = target: T6, Human VSIG4-L-Fc; assay: BLI binning on hVSIG4-L-Fc, competitor 13H11 first;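 note: normalized to binding of second antibody without first competitor antibody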
Method: as §1, §2

Human VSIG4-L-Fc [9] = target: T6, Human VSIG4-L-Fc; assay: BLI binning on hVSIG4-L-Fc, competitor 12A12 first;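 note: normalized to binding of second antibody without first competitor antibody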
[10] = target: T2, Cynomolgus Monkey VSIG4-L-His; assay: BLI, IgG on AHC sensor, antigen 100 nM
Method: (§3) The binding affinity of chimeric antibodies was determined by biolayer interferometry (BLI), using a ForteBio Octet® Red384 system. […] Biosensors were rehydrated prior to the assay in kinetics buffer for 10 minutes and then equilibrated in kinetics buffer for 60 seconds. Antibody was then immobilized for 300 seconds followed by a 120 second baseline wash in fresh kinetics buffer, 300 second analyte association, and 300 second dissociation in the same buffer wells as the baseline wash step. All assay steps occurred at 30° C. with an acquisition rate of 5.0 Hz
(§4) The binding affinity of humanized antibodies and the parental chimeric antibodies was determined by biolayer interferometry (BLI), using a ForteBio Octet® Red384 system, as described above.

Human VSIG4-L-His [11] = target: T3, Human VSIG4-L-His; assay: BLI, IgG on AHC sensor, antigen 100 nM
Method: as §3, §4

Human VSIG4-L-Fc [12] = target: T6, Human VSIG4-L-Fc; assay: BLI binning on hVSIG4-L-Fc, competitor 14C05 first;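 note: normalized to binding of second antibody without first competitor antibody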
Human VSIG4-L-Fc [13] = target: T6, Human VSIG4-L-Fc; assay: BLI binning on hVSIG4-L-Fc, competitor 14D12 first;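 note: normalized to binding of second antibody without first competitor antibody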
Human VSIG4-L-Fc [14] = target: T6, Human VSIG4-L-Fc; assay: BLI binning on hVSIG4-L-Fc, competitor 15A06 first;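 note: normalized to binding of second antibody without first competitor antibody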
Method: as §1, §2

[15] = target: T1, Human VSIG4-L-CHO (human VSIG4 long …); assay: flow cytometry (FJB), 200 nM mAb, huVSIG4-L CHO-K1 cells
Human VSIG4-S-His [16] = target: T4, Human VSIG4-S-His; assay: BLI (Octet), IgG on AHC sensor
Method: as §3

Human VSIG4-L-Fc [17] = target: T6, Human VSIG4-L-Fc; assay: ligand competition ELISA (FJB), blocked ligand iC3b
Human VSIG4-L-Fc [18] = target: T6, Human VSIG4-L-Fc; assay: ligand blocking of C3b, IgG
[19] = target: T2, Cynomolgus Monkey VSIG4-L-His; assay: ELISA, IgG 50 nM on coated antigen;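 note: Mouse-human chimeric IgG4 antibodies incubated 1 h on plate-coated VSIG4 proteins, bound IgG detected with HRP-labelled anti-human IgG, irrelevant antibody and protein as specificity controls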
Method: (§5) The binding characteristics of selected antibodies identified in the phage display selections and reformatted as mouse-human chimeric IgG4 antibodies was assessed by ELISA for their ability to bind plate-bound human VSIG4-L, human VSIG4-S, cynomolgus monkey VSIG4, and mouse VSIG4 (Table 7). Antibodies were also assessed by ELISA for specificity to human VSIG4 compared to related VSIG4 B7 family members, including human B7-H1, B7-H2, B7-H3, B7-H4, B7-DC, B7-1, and B7-2 (Table 8).
(§6) Coated microplates were blocked with dried skimmed milk at 4% in PBS. Coated proteins were then incubated with each purified antibody at a concentration of 50 nM for 1 h to allow the binding to the proteins. Binding detection was measured using a goat anti-huIgG monoclonal detection antibody, HRP conjugated (Jackson Immune Research, West Gove, PA). As a control for specificity, an irrelevant antibody and protein were used. OD at 450 nm was determined using a standard absorbance microplate reader.

Human VSIG4-S-Fc = target: T7, Human VSIG4-S-Fc (human); assay: ELISA, IgG 50 nM on coated antigen;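 note: Mouse-human chimeric IgG4 antibodies incubated 1 h on plate-coated VSIG4 proteins, bound IgG detected with HRP-labelled anti-human IgG, irrelevant antibody and protein as specificity controls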
T7 construct: short isoform ECD fused to human Fc1; also called hVSIG4-S
T7 sequence (chain, as listed by the source limits assumed): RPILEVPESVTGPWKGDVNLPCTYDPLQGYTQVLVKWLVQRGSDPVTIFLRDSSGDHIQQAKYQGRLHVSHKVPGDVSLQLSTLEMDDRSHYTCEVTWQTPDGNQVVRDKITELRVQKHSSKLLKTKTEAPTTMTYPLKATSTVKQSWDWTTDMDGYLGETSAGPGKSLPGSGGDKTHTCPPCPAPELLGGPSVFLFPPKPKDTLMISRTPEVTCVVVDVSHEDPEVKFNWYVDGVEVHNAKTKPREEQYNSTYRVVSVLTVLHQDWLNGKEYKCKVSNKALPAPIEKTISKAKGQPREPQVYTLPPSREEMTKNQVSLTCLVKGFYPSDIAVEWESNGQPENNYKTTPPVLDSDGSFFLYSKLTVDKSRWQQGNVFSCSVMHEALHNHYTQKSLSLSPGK
Method: as §5, §6

Human VSIG4-L-Fc [20] = target: T6, Human VSIG4-L-Fc; assay: ELISA, IgG 50 nM on coated antigen;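 note: Mouse-human chimeric IgG4 antibodies incubated 1 h on plate-coated VSIG4 proteins, bound IgG detected with HRP-labelled anti-human IgG, irrelevant antibody and protein as specificity controls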
Method: as §5, §6

Mouse VSIG4-His = target: T5, Mouse VSIG4-His; assay: ELISA, IgG 50 nM on coated antigen;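 note: Mouse-human chimeric IgG4 antibodies incubated 1 h on plate-coated VSIG4 proteins, bound IgG detected with HRP-labelled anti-human IgG, irrelevant antibody and protein as specificity controls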
Method: as §5, §6

Human VSIG4-L-Fc [21] = target: T6, Human VSIG4-L-Fc; assay: ligand blocking of iC3b, IgG
[22] = target: T2, Cynomolgus Monkey VSIG4-L-His; assay: BLI (Octet), IgG on AHC sensor, antigen 100 nM
Human VSIG4-L-His [23] = target: T3, Human VSIG4-L-His; assay: BLI (Octet), IgG on AHC sensor, antigen 100 nM
[24] = target: T1, Human VSIG4-L-CHO (human VSIG4 long …); assay: flow cytometry, CHO-K1 cells expressing hVSIG4-L
[25] = target: T2, Cynomolgus Monkey VSIG4-L-His; assay: SPR (FJB)
Human VSIG4-L-Fc [26] = target: T6, Human VSIG4-L-Fc; assay: ligand competition ELISA (FJB), blocked ligand C3b, 200 nM mAb
[27] = target: T2, Cynomolgus Monkey VSIG4-L-His; assay: ELISA, IgG 50 nM on coated antigen; ELISA, bivalent IgG on plate-coated cyVSIG4-L (avid format)
Method: as §6

Human VSIG4-L-His [28] = target: T3, Human VSIG4-L-His; assay: SPR (FJB)
Human VSIG4-L-Fc [29] = target: T6, Human VSIG4-L-Fc; assay: ligand competition ELISA (FJB), blocked ligand iC3b, 200 nM mAb
Human VSIG4-L-Fc [30] = target: T6, Human VSIG4-L-Fc; assay: BLI cross-blocking on hVSIG4-L-Fc, competitor 14C05 first
Human VSIG4-L-Fc [31] = target: T6, Human VSIG4-L-Fc; assay: BLI cross-blocking on hVSIG4-L-Fc, competitor 12A12 first
Human VSIG4-L-Fc [32] = target: T6, Human VSIG4-L-Fc; assay: BLI cross-blocking on hVSIG4-L-Fc, competitor 16G02 first
Human VSIG4-S-His [33] = target: T4, Human VSIG4-S-His; assay: BLI (Octet), IgG on AHC sensor, antigen 100 nM

| normalized maximum binding nm shift (Human VSIG4-L-Fc [1]) [normalized] | normalized maximum binding nm shift (Human VSIG4-L-Fc [2]) [normalized] | normalized maximum binding nm shift (Human VSIG4-L-Fc [3]) [normalized] | IC50 (Human VSIG4-L-Fc [4]) [nM] | normalized maximum binding nm shift (Human VSIG4-L-Fc [5]) [normalized] | normalized maximum binding nm shift (Human VSIG4-L-Fc [6]) [normalized] | Binding (200 nM) Fold-Over-Parental [7] [fold] | normalized maximum binding nm shift (Human VSIG4-L-Fc [8]) [normalized] | normalized maximum binding nm shift (Human VSIG4-L-Fc [9]) [normalized] | KD relative to parental chimera [10] [fold] | normalized maximum binding nm shift (Human VSIG4-L-Fc [12]) [normalized] | normalized maximum binding nm shift (Human VSIG4-L-Fc [13]) [normalized] | normalized maximum binding nm shift (Human VSIG4-L-Fc [14]) [normalized] | Binding (200 nM) MFI [15] [MFI] | ELISA OD450 (Human VSIG4-S-Fc) [OD450] | ELISA OD450 (Human VSIG4-L-Fc [20]) [OD450] | ELISA OD450 (Mouse VSIG4-His) [OD450] | Kd (Human VSIG4-L-His [23]) [nM] | EC50 [24] [nM] | Kd [25] [nM] | Binder | further results |
| --- | --- | --- | --- | --- | --- | --- | --- | --- | --- | --- | --- | --- | --- | --- | --- | --- | --- | --- | --- | --- | --- |
| 0.7 | 0.72 | 0.95 | ~7 | 0.68 | 0.86 | 140 | 0.09 | 0.74 | 1 | 0.74 | 0.69 | 0.51 | 54300 | 0.44 | 4.27 | 0.048 | 50.6 | 1.2 | 20.1 | 13H11 mouse/human chimeric IgG4 (S228P) kappa (antibody, V domains shown) VH: QIQLVQSGPELKKPGETVKISCKASGYTFENFGMNWVKQAPGKGLKWMGWINTYTGEATYADDFKGRFAFSLETSASTAYLQINNLKNEDTATYFCARDGGFRHFDVWGAGTTVTVSS VL: ETTVTQSPASLSVATGEKVTIRCITSTDIDDDMNWYQQKPGEPPKLLISEGNTLRPGVPSRFSSSGYGTDFVFTIENMLSEDVADYYCLQSDNLPLTFGAGTKLELKR | KD relative to parental chimera (Human VSIG4-L-His [11]): 1 fold; binding result (Human VSIG4-S-His [16]): no binding (tested: 100 nM); IC50 (Human VSIG4-L-Fc [17]): 440 nM; Percent Blocking C3b (Human VSIG4-L-Fc [18]): 75%; ELISA OD450 [19]: 4.37 OD450; Percent Blocking iC3b (Human VSIG4-L-Fc [21]): 78%; Kd [22]: 20.3 nM |
| 0.88 | 0.73 | 0.95 | – | 0.15 | 0.79 | 63 | 0.53 | 0.91 | – | 0.8 | 0.79 | 0.12 | 23900 | 0.24 | 4.38 | 0.067 | 28.5 | 2.4 | 14.3 | 15A06 mouse/human chimeric IgG4 (S228P) kappa (antibody, V domains shown) VH: QVQMKQSGPSLVRPSQTLSLTCSVTGDSITSGYWNWIRKFPGDKFEYLGYISYSGFTYYNPSLKSRVSITRDTSKNQYYLQLHSVTTEDTATYYCASSKYGSSLGFPYWGQGTLVTVSA VL: DVVMTQTPLSLPVSLGDQASISCRSSQSLVHSNGNTYLHWYLQKPGQSPKLLIYKVSNRFSGVPDRFSGSGSGTDFTLKISRVEAEDLGVYFCSQSTHVPFTFGSGTKLEIKR | % Block C3b (200 nM mAb) (Human VSIG4-L-Fc [26]): -24%; binding result (Human VSIG4-S-His [16]): no binding (tested: 100 nM); ELISA OD450 [27]: 4.35 OD450; Kd (Human VSIG4-L-His [28]): 15 nM; % Block iC3b (200 nM mAb) (Human VSIG4-L-Fc [29]): 2% |
| 0.75 | 0.62 | 0.87 | 2.4 | 0.76 | 0.38 | 304 | 0.66 | 0.83 | 1 | 0.11 | 0.07 | 0.68 | 109000 | 4.36 | 4.51 | 0.055 | 3.46 | 4.4 | 5.4 | 14C05 mouse/human chimeric IgG4 (S228P) kappa (antibody, V domains shown) VH: EVMLVESGPELKKPGETVKISCKASGYTFTNYGMNWVKQAPGKGLKWMGSINTYTGEATYADDFKGRFAFSLETSANTAYLQIDNLKNEDTATYFCARGDYYGRGTWFAYWGQGTLVTVSA VL: ETTVTQSHKFMSTSVGDRVSITCKASQDVSTAVAWYQQKPGQSPKLLIYSASYRYPGVPDRFTGSGSGTDFTFTISSVQAEDLAVYYCQQDYSSPWTFGGGTKLEIKR | binding signal (nm shift) (Human VSIG4-L-Fc [30]): 0.11 nm; binding signal (nm shift) (Human VSIG4-L-Fc [31]): 0.83 nm; binding signal (nm shift) (Human VSIG4-L-Fc [32]): 0.16 nm; KD relative to parental chimera (Human VSIG4-L-His [11]): 1 fold; Percent Blocking C3b (Human VSIG4-L-Fc [18]): 96%; ELISA OD450 [19]: 4.52 OD450; Kd (Human VSIG4-S-His [33]): 2.69 nM; Kd [22]: 30 nM; Kd (Human VSIG4-L-His [28]): 1.7 nM |
